Patent US20220177594A1 (ZOETIS SERVICES, published 2022)
Substitutions are numbered along the chain they refer to.

B1: Mu_09E09 (antibody, V domains shown)
VH: DVKLVESGEGLVKPGGSLKLSCAASGFTFSSYAMSWVRQTPEKRLEWVAYISSGGDYIYYADTVKGRFTISRDNARNTLYLQMSSLKSEDTAMYYCTRDPITGTFAYWGQGTLVTVSA
VL: DLQMTQTTSSLSASLGDRVTISCRASQDINNYLNWYQQKPDGTVKLLIYYTSTLHSGVPSRFSGSGSGTDYSLTISNLEQEDIATYFCQQGNTLPWTFGGGTKLEIK
notes: Mouse hybridoma IgG
B2: Mu_10F07 (antibody, V domains shown)
VH: B1 VH with A49T, I58F
VL: B1 VL with L2I, N30T, Y71F, N92H, T93M
notes: Mouse hybridoma IgG
B3: Mu_14C04 (antibody, V domains shown)
VH: EVQLQESGAELVKPGASVKISCKASGYAFSNYWMNWMKQRPGKGLEWIGQIYPGHVNTNYNGNFKDKATLTADKSSSTAYMQLSSLTSEDSAVYFCARSADNSGFVLFAYWGQGTLVTVS
VL: DIVLTQSPASLAVSLGQRATISCRASKSVSTSGYSYLHWYQQKPGQPPKLLIFLASNLESGVPARFSGSGSGTDFTLNIHPVEEEDAATYYCQHSRELPLTFGAGTKLELK
notes: Mouse hybridoma IgG
B4: Mu_19F07 (antibody, V domains shown)
VH: EVKLVESEGGLVQPGSSMKLSCTASGFTFSDYYMAWVRQVPEKGLEWVANINYDGSSTYYLDSLKSRFIISRDNAKNILYLQMSSLKSEDTATYYCARGLTWDFDVWGTGTTVTVSS
VL: DIVMTQSHKFMSPSVGDRVSITCKASQDVDTAVAWYQQKPGQSPKLLIYLASTRHTGVPDRFTGSGSGTDFTLTISNVQSEDLADYFCQQYSRFPLTFGAGTKLELK
notes: Mouse hybridoma IgG
B5: mouse: canine 02D09 chimera (antibody, V domains shown)
VH: EVQLVESGGGLVKPGGSLTLSCAASGFTFSDYGMHWLRQAPEKGLEWVAYISSGSRAVFFADTVKGRFTISRDNAKNTLFLQMTSLRSDDTAMYYCARDRYDGRGFAYWGQGTLVTVSA
VL: DIVLTQSPATLSVTPGDSVSLSCRASQSISNNLHWYQQTSHESPRLLITYASQSISGIPSRFSGSGSGTDFTLSINSVETEDFGMYFCQQSNSWPLTFGAGTKLELKR
notes: Mouse variable domains on canine IgG constant regions; also called 02D09 (Mouse:Canine); chimeric 02D09
B6: mouse: canine 09E09 chimera (antibody, V domains shown)
VH: B1 VH
VL: DLQMTQTTSSLSASLGDRVTISCRASQDINNYLNWYQQKPDGTVKLLIYYTSTLHSGVPSRFSGSGSGTDYSLTISNLEQEDIATYFCQQGNTLPWTFGGGTKLEIKR
notes: Mouse variable domains on canine IgG constant regions; also called 09E09 (Mouse:Canine); mouse:dog chimera 09E09
B7: mouse: canine 19F07 chimera (antibody, V domains shown)
VH: B4 VH
VL: DIVMTQSHKFMSPSVGDRVSITCKASQDVDTAVAWYQQKPGQSPKLLIYLASTRHTGVPDRFTGSGSGTDFTLTISNVQSEDLADYFCQQYSRFPLTFGAGTKLELKR
notes: Mouse variable domains on canine IgG constant regions; also called 19F07 (Mouse:Canine); mouse:dog chimera 19F07

Each binder was assayed against T1, canine OSMR on canine cells (canine, UniProt A0A8I3MI11 28-967) (assay: cell-based or functional assay).
T1 sequence: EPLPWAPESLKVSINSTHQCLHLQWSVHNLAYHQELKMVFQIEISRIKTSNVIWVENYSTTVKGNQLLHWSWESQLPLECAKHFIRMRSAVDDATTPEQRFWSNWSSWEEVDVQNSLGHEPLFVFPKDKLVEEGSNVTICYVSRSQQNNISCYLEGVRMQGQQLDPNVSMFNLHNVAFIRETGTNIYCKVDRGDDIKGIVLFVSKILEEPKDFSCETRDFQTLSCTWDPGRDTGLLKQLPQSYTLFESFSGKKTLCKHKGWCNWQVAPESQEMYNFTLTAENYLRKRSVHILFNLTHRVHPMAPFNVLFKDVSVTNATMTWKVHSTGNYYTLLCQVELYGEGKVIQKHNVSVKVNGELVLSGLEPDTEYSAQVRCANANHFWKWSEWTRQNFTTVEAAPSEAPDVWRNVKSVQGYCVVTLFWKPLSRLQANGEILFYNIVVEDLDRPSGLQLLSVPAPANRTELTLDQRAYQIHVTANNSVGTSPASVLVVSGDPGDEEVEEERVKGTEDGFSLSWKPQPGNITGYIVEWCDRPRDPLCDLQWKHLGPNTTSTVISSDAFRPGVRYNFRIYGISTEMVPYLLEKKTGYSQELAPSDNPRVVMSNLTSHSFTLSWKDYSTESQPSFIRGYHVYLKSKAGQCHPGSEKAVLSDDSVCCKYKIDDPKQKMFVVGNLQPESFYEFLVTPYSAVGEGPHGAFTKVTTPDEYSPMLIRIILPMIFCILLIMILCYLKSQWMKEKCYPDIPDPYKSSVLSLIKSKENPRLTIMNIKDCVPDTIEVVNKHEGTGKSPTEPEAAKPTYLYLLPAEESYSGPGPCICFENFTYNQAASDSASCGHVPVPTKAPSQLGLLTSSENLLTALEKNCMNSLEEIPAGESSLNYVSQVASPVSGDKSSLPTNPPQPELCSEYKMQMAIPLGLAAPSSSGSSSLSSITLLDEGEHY

| % inh of canine IL-31 pSTAT3 signaling, canine DH82 cells | IC50, inhibition of canine OSM pSTAT3 signaling, canine DH82 cells | IC50, inhibition of canine IL-31 pSTAT3 signaling, canine DH82 cells | Binder |
| --- | --- | --- | --- |
| 80 % inh @ 75 µg/ml | – | – | B1 |
| 93 % inh @ 75 µg/ml | 0.05 µg/ml | – | B2 |
| – | 8.64 µg/ml | 5.65 µg/ml | B3 |
| – | 0.27 µg/ml | 0.07 µg/ml | B4 |
| – | – | 97.7 µg/ml | B5 |
| – | – | 31.3 µg/ml | B6 |
| – | 0.26 µg/ml | 0.28 µg/ml | B7 |

Each binder was assayed against T2, feline OSMR on feline Fcwf-4 cells (feline, UniProt A0ABI8A843 28-960) (assay: cell-based or functional assay).
T2 sequence: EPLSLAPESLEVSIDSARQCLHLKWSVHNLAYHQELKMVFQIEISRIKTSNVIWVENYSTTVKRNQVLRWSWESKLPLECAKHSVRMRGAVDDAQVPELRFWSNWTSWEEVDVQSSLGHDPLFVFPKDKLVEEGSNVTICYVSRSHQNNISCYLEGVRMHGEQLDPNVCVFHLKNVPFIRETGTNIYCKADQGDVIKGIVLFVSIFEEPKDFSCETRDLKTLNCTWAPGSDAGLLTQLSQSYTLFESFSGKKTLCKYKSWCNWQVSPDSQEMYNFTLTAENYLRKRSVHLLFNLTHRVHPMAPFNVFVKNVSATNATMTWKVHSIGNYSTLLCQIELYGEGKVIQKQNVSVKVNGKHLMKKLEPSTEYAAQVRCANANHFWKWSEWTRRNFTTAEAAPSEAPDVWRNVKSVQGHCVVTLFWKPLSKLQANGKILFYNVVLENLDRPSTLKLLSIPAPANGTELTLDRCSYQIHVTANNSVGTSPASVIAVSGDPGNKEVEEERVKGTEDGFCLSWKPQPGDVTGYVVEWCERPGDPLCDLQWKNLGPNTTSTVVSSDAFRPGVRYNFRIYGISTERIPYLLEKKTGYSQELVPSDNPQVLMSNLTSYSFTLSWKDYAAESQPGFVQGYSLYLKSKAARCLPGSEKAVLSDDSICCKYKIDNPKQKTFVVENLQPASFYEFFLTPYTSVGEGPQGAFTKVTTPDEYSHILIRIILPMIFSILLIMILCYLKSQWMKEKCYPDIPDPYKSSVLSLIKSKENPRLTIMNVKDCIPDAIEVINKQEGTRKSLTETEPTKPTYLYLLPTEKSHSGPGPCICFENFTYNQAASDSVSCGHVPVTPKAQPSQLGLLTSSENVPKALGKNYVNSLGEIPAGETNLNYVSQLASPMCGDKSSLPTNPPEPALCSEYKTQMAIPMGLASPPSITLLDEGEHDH

| % inh of feline IL-31 pSTAT3 signaling, feline Fcwf-4 cells | IC50, inhibition of canine OSM pSTAT3 signaling, feline Fcwf-4 cells | IC50, inhibition of feline IL-31 pSTAT3 signaling, feline Fcwf-4 cells | Binder |
| --- | --- | --- | --- |
| 63 % inh @ 75 µg/ml | – | – | B1 |
| 91 % inh @ 75 µg/ml | 0.23 µg/ml | – | B2 |
| 0 % inh @ 75 µg/ml | – | – | B3 |
| – | 0.68 µg/ml | 0.42 µg/ml | B4 |

Target: T1, canine OSMR on canine cells
Experiment: cell-based or functional assay
Remark: another data set of the same source

| % inh of canine IL-31 pSTAT3 signaling, canine DH82 cells | IC50, inhibition of canine OSM pSTAT3 signaling, canine DH82 cells | Binder |
| --- | --- | --- |
| 80 % inh | – | B1 |
| 93 % inh | 0.04 µg/ml | B2 |
| 72 % inh | 0.73 µg/ml | B3 |
| 87 % inh | 0.27 µg/ml | B4 |

Target: T2, feline OSMR on feline Fcwf-4 cells
Experiment: cell-based or functional assay
Remark: another data set of the same source

| % inh of feline IL-31 pSTAT3 signaling, feline Fcwf-4 cells | Binder |
| --- | --- |
| 63 % inh | B1 |
| 91 % inh | B2 |
| 0 % inh | B3 |
| 90 % inh | B4 |

The binders below were run against T3, ANTIBODY EXPRESSION CONTROL (assay: SPR Biacore, expression control).
T3 construct: also called mouse anti-canine antibody (capture reagent of the expression control ELISA)
Summary of the method: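 Surface plasmon resonance with OSMR amine-coupled at 5 μg/mL via NHS/EDC, ethanolamine-quenched, and candidate mAbs flowed over as analyte. ka, kd and KD derived from 1:1 model fits.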

| Kd | koff | kon | Binder |
| --- | --- | --- | --- |
| 0.6 nM | 9.15e-05 s⁻¹ | 153000 M⁻¹ s⁻¹ | B5 |
| 0.0023 nM | 8.68e-07 s⁻¹ | 374000 M⁻¹ s⁻¹ | B6 |
| 0.082 nM | 2.29e-05 s⁻¹ | 281000 M⁻¹ s⁻¹ | B7 |

Each binder was assayed against T4, Human_OSMR (human, UniProt Q99650 28-739) (assay: SPR Biacore, OSMR on chip).
T4 construct: Bought protein; also called hOSMR
T4 sequence: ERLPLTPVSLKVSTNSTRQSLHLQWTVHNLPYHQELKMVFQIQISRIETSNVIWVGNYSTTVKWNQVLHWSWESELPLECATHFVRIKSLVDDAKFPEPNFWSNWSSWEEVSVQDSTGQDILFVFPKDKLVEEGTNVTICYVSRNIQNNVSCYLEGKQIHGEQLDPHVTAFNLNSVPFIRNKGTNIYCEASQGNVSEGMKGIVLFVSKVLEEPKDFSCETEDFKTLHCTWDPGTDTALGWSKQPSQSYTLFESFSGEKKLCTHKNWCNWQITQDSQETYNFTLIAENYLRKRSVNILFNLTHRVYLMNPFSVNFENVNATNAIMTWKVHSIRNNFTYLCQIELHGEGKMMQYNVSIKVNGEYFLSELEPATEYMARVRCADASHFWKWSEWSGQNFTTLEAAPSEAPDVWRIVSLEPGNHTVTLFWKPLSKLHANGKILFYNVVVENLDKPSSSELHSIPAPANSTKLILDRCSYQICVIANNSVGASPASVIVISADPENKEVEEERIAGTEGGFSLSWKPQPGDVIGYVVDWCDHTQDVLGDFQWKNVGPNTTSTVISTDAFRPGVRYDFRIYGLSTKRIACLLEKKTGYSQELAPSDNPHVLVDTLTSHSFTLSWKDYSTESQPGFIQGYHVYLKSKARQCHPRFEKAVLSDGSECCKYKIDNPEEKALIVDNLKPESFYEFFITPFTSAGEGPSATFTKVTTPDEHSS

| binding result | Binder |
| --- | --- |
| no binding | B1 |
| no binding | B2 |
| no binding | B3 |
| no binding | B4 |

Target: T4, Human_OSMR
Experiment: SPR Biacore, OSMR on chip
Remark: another data set of the same source
Method: The affinity with which candidate mAbs bind canine, feline, and human (SEQ ID NO: 122; Human_OSMR) (R&D Systems, Minneapolis, Minn.) OSMR was determined using surface plasmon resonance (SPR) on a Biacore system (Biacore Life Sciences (GE Healthcare), Uppsala, Sweden). To avoid affinity differences associated with differential surface preparation that can occur when immobilizing antibodies to surfaces; OSMR from each species was directly conjugated to individual surfaces. Immobilization was obtained by amine coupling 5 μg/mL OSMR using N-hydroxysuccinimide (NHS)/1-Ethyl-3-(3-dimethylaminopropyl) carbodiimide (EDC) chemistry. Chips were quenched with ethanolamine and the affinity with which all candidate mAbs bound to the immobilized OSMR was evaluated. All curves were fit to a 1:1 model. […] Results for affinity measurements are described herein.

| binding result | Binder |
| --- | --- |
| no binding | B5 |
| no binding | B6 |
| no binding | B7 |

Target: T1, canine OSMR on canine cells
Experiment: cell-based or functional assay
Remark: another data set of the same source

| IC50, inhibition of canine IL-31 pSTAT3 signaling, canine DH82 cells | Binder |
| --- | --- |
| 97.7 µg/ml | B5 |
| 47.5 µg/ml | B6 |
